# T1: PYL3 with HAB1 (Arabidopsis thaliana, UniProt Q9SSM7, F81A)
# T1 construct: 6xHis-tagged PYL3 plus HAB1 (169-511), GST tag removed by TEV protease; both from E. coli; with Protein phosphatase 2C 16
# T1 sequence (Q9SSM7 1-209 F81A): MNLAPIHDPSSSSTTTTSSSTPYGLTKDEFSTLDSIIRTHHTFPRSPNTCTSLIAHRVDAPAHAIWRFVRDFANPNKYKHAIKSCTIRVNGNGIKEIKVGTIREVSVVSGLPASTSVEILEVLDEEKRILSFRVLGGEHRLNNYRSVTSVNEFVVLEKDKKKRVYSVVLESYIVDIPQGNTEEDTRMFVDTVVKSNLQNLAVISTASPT
# T1 sequence (Q9CAJ0 169-511 partner): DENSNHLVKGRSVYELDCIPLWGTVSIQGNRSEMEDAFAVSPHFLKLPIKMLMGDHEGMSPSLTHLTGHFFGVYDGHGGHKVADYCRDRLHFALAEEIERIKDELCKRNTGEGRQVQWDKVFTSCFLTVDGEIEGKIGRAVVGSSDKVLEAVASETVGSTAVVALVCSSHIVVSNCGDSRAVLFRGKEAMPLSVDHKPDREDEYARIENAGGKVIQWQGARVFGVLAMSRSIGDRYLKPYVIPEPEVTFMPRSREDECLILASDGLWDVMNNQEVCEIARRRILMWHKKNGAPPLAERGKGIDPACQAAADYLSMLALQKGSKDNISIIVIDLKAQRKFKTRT
# T2: PYL3 with HAB1 (Arabidopsis thaliana, UniProt Q9SSM7, F188A)
# T2 construct: 6xHis-tagged PYL3 plus HAB1 (169-511), GST tag removed by TEV protease; both from E. coli; with Protein phosphatase 2C 16
# T2 sequence (Q9SSM7 1-209 F188A): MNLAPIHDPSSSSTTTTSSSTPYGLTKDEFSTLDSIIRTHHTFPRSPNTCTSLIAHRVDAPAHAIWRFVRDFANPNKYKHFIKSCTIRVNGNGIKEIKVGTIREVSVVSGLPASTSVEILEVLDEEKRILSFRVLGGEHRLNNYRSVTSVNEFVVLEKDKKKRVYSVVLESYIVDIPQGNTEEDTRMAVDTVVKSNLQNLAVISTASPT
# T2 sequence (Q9CAJ0 169-511 partner): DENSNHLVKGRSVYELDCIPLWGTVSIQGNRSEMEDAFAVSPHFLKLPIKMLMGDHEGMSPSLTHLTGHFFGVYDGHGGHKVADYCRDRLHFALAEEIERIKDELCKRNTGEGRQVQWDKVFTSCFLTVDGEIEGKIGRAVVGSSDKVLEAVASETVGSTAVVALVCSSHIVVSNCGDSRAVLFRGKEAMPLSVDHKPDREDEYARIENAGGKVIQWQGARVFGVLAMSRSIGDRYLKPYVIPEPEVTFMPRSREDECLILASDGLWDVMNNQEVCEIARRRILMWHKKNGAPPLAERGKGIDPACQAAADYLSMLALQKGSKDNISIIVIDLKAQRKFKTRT
# T3: PYL3 with HAB1 (Arabidopsis thaliana, UniProt Q9SSM7)
# T3 construct: 6xHis-tagged PYL3 plus HAB1 (169-511), GST tag removed by TEV protease; both from E. coli; with Protein phosphatase 2C 16
# T3 sequence (Q9SSM7 1-209): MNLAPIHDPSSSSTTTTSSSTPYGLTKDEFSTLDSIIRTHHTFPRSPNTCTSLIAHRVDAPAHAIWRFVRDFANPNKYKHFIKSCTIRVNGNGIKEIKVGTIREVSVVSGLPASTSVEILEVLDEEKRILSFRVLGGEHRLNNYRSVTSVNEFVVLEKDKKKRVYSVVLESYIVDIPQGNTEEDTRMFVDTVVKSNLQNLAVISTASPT
# T3 sequence (Q9CAJ0 169-511 partner): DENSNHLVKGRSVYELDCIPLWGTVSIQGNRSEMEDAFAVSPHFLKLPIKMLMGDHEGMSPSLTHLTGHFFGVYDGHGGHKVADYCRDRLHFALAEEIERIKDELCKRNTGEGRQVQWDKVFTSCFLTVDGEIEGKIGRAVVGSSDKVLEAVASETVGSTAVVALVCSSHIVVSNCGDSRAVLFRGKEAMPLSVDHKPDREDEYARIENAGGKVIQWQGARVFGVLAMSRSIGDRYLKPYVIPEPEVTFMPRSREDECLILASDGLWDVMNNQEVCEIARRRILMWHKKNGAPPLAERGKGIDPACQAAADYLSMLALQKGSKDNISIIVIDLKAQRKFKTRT
# Key:
# PYL3 with HAB1 [1] = target: T1, PYL3 with HAB1; test: HAB1 phosphatase assay (Promega V2460), phosphopeptide substrate; assay type: biochemical; conditions: read-out: % inhibition of HAB1 with 5 μM ABA
# PYL3 with HAB1 [2] = target: T2, PYL3 with HAB1; test: as above; assay type: biochemical; conditions: read-out: % inhibition of HAB1 with 5 μM ABA
# PYL3 with HAB1 [3] = target: T3, PYL3 with HAB1; test: as above; assay type: biochemical; conditions: HAB1 0.5 μM, PYL3 1 μM, ABA 5 μM, pH 7.5, 30 °C; ABA promotes inhibition of HAB1 by PYL3
# [4] = target: AD-HAB1 (169-511) (Arabidopsis thaliana) (UniProt Q9CAJ0)
# AD-HAB1 (169-511) (Arabidopsis thaliana), sequence (Q9CAJ0 whole entry): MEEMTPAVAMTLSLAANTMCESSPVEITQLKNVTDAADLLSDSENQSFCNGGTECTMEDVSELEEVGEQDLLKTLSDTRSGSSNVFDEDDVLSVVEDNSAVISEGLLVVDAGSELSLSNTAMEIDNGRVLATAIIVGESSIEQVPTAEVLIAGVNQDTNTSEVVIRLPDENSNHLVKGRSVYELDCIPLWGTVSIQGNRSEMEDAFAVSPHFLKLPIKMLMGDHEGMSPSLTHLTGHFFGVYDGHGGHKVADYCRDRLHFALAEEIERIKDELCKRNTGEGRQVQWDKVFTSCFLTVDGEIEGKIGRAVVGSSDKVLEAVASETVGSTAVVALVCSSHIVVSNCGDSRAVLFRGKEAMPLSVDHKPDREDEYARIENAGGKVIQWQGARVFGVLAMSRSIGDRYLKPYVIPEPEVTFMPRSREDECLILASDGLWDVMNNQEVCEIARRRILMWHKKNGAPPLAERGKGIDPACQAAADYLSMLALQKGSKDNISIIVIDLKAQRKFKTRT
# [5] = target: AD-HAB1 (169-511) (Arabidopsis thaliana) (UniProt Q9CAJ0); remark: listed apart in the source
# [6] = target: AD-HAB1 (169-511) (Arabidopsis thaliana) (UniProt Q9CAJ0); remark: listed apart in the source
# [7] = target: the molecule itself; test: cross-linking; EGS cross-linking gel assay: 20 μg 6x His-tagged PYL3 WT or mutant in PBS (pH 7.5, 150 mM NaCl), 100 μL, increasing EGS, 10 min at room temperature, stopped with Tris-glycine; 10% SDS/PAGE, Coomassie; self-association (dimer)
Molecule,"inhibition of HAB1 (0.5 μM) phosphatase activity by 1 μM PYL3 mutant, without ABA [5]",other results
CC1=CC(=O)CC(C)(C)[C@@]1(O)/C=C/C(C)=C\C(=O)O [ABA],–,"inhibition at 5 µM (PYL3 with HAB1 [1]): ~70%; inhibition at 5 µM (PYL3 with HAB1 [2]): ~70%; HAB1 phosphatase assay (Promega V2460), phosphopeptide substrate (PYL3 with HAB1 [3]): PYL3 could almost completely inhibit the activity of HAB1 in the presence of ABA"
BD-PYL3 V108K V107L V192F L111F (receptor) MNLAPIHDPSSSSTTTTSSSTPYGLTKDEFSTLDSIIRTHHTFPRSPNTCTSLIAHRVDAPAHAIWRFVRDFANPNKYKHFIKSCTIRVNGNGIKEIKVGTIREVSLKSGFPASTSVEILEVLDEEKRILSFRVLGGEHRLNNYRSVTSVNEFVVLEKDKKKRVYSVVLESYIVDIPQGNTEEDTRMFVDTFVKSNLQNLAVISTASPT,92.5%,–
PYL3 F81A (receptor) MNLAPIHDPSSSSTTTTSSSTPYGLTKDEFSTLDSIIRTHHTFPRSPNTCTSLIAHRVDAPAHAIWRFVRDFANPNKYKHAIKSCTIRVNGNGIKEIKVGTIREVSVVSGLPASTSVEILEVLDEEKRILSFRVLGGEHRLNNYRSVTSVNEFVVLEKDKKKRVYSVVLESYIVDIPQGNTEEDTRMFVDTVVKSNLQNLAVISTASPT,–,"inhibition of HAB1 (0.5 μM) phosphatase activity by 1 μM PYL3 mutant, with ABA (5 μM) [6]: 70%"
BD-PYL3 V108K V107L V192F (receptor) MNLAPIHDPSSSSTTTTSSSTPYGLTKDEFSTLDSIIRTHHTFPRSPNTCTSLIAHRVDAPAHAIWRFVRDFANPNKYKHFIKSCTIRVNGNGIKEIKVGTIREVSLKSGLPASTSVEILEVLDEEKRILSFRVLGGEHRLNNYRSVTSVNEFVVLEKDKKKRVYSVVLESYIVDIPQGNTEEDTRMFVDTFVKSNLQNLAVISTASPT,87.5%,–
"wild-type PYL3 (6x His-tagged) (receptor, Arabidopsis thaliana, UniProt Q9SSM7 1-209, looked up, PYL3 (pyrabactin resistance/Pyr1-like 3), Arabidopsis thaliana, subcloned from a cDNA library into pET-28a-tev; also called PYL3 WT; source: E. coli BL21(Rosseta), purified (Ni-charged resin, SEC Superdex-200)) MNLAPIHDPSSSSTTTTSSSTPYGLTKDEFSTLDSIIRTHHTFPRSPNTCTSLIAHRVDAPAHAIWRFVRDFANPNKYKHFIKSCTIRVNGNGIKEIKVGTIREVSVVSGLPASTSVEILEVLDEEKRILSFRVLGGEHRLNNYRSVTSVNEFVVLEKDKKKRVYSVVLESYIVDIPQGNTEEDTRMFVDTVVKSNLQNLAVISTASPT",–,stoichiometry N [7]: 2
BD-PYL3 V108K V107F V192F L111F (receptor) MNLAPIHDPSSSSTTTTSSSTPYGLTKDEFSTLDSIIRTHHTFPRSPNTCTSLIAHRVDAPAHAIWRFVRDFANPNKYKHFIKSCTIRVNGNGIKEIKVGTIREVSFKSGFPASTSVEILEVLDEEKRILSFRVLGGEHRLNNYRSVTSVNEFVVLEKDKKKRVYSVVLESYIVDIPQGNTEEDTRMFVDTFVKSNLQNLAVISTASPT,98%,–
PYL3 F188A (receptor) MNLAPIHDPSSSSTTTTSSSTPYGLTKDEFSTLDSIIRTHHTFPRSPNTCTSLIAHRVDAPAHAIWRFVRDFANPNKYKHFIKSCTIRVNGNGIKEIKVGTIREVSVVSGLPASTSVEILEVLDEEKRILSFRVLGGEHRLNNYRSVTSVNEFVVLEKDKKKRVYSVVLESYIVDIPQGNTEEDTRMAVDTVVKSNLQNLAVISTASPT,–,"inhibition of HAB1 (0.5 μM) phosphatase activity by 1 μM PYL3 mutant, with ABA (5 μM) [6]: 70%"
BD-PYL3 V108K V107F V192F (receptor) MNLAPIHDPSSSSTTTTSSSTPYGLTKDEFSTLDSIIRTHHTFPRSPNTCTSLIAHRVDAPAHAIWRFVRDFANPNKYKHFIKSCTIRVNGNGIKEIKVGTIREVSFKSGLPASTSVEILEVLDEEKRILSFRVLGGEHRLNNYRSVTSVNEFVVLEKDKKKRVYSVVLESYIVDIPQGNTEEDTRMFVDTFVKSNLQNLAVISTASPT,90%,–
"PYL3 V108A (6x His-tagged) (receptor, Arabidopsis thaliana, UniProt Q9SSM7 1-209, looked up, PYL3, Arabidopsis thaliana, in pET-28a-tev, site-directed mutant; Same limits as m1; source: E. coli BL21(Rosseta), purified (Ni-charged resin, SEC Superdex-200)) MNLAPIHDPSSSSTTTTSSSTPYGLTKDEFSTLDSIIRTHHTFPRSPNTCTSLIAHRVDAPAHAIWRFVRDFANPNKYKHFIKSCTIRVNGNGIKEIKVGTIREVSVASGLPASTSVEILEVLDEEKRILSFRVLGGEHRLNNYRSVTSVNEFVVLEKDKKKRVYSVVLESYIVDIPQGNTEEDTRMFVDTVVKSNLQNLAVISTASPT",–,stoichiometry N [7]: 2

# Now from value to molecule, other results behind:
"inhibition of HAB1 (0.5 μM) phosphatase activity by 1 μM PYL3 mutant, without ABA [5]",Molecule,other results
25%,PYL3 V108K V107L (receptor) MNLAPIHDPSSSSTTTTSSSTPYGLTKDEFSTLDSIIRTHHTFPRSPNTCTSLIAHRVDAPAHAIWRFVRDFANPNKYKHFIKSCTIRVNGNGIKEIKVGTIREVSLKSGLPASTSVEILEVLDEEKRILSFRVLGGEHRLNNYRSVTSVNEFVVLEKDKKKRVYSVVLESYIVDIPQGNTEEDTRMFVDTVVKSNLQNLAVISTASPT,"inhibition of HAB1 phosphatase activity by the PYL3 mutant, without ABA (as retold in the discussion, Fig. 3) [4]: 20%"
50%,PYL3 V108K V107L V192L (receptor) MNLAPIHDPSSSSTTTTSSSTPYGLTKDEFSTLDSIIRTHHTFPRSPNTCTSLIAHRVDAPAHAIWRFVRDFANPNKYKHFIKSCTIRVNGNGIKEIKVGTIREVSLKSGLPASTSVEILEVLDEEKRILSFRVLGGEHRLNNYRSVTSVNEFVVLEKDKKKRVYSVVLESYIVDIPQGNTEEDTRMFVDTLVKSNLQNLAVISTASPT,–
80%,PYL3 V108K V107L L111F (receptor) MNLAPIHDPSSSSTTTTSSSTPYGLTKDEFSTLDSIIRTHHTFPRSPNTCTSLIAHRVDAPAHAIWRFVRDFANPNKYKHFIKSCTIRVNGNGIKEIKVGTIREVSLKSGFPASTSVEILEVLDEEKRILSFRVLGGEHRLNNYRSVTSVNEFVVLEKDKKKRVYSVVLESYIVDIPQGNTEEDTRMFVDTVVKSNLQNLAVISTASPT,–
65%,PYL3 V108K V107F (receptor) MNLAPIHDPSSSSTTTTSSSTPYGLTKDEFSTLDSIIRTHHTFPRSPNTCTSLIAHRVDAPAHAIWRFVRDFANPNKYKHFIKSCTIRVNGNGIKEIKVGTIREVSFKSGLPASTSVEILEVLDEEKRILSFRVLGGEHRLNNYRSVTSVNEFVVLEKDKKKRVYSVVLESYIVDIPQGNTEEDTRMFVDTVVKSNLQNLAVISTASPT,"inhibition of HAB1 phosphatase activity by the PYL3 mutant, without ABA (as retold in the discussion, Fig. 3) [4]: 40%"
85%,PYL3 V108K V107L V192L L111F (receptor) MNLAPIHDPSSSSTTTTSSSTPYGLTKDEFSTLDSIIRTHHTFPRSPNTCTSLIAHRVDAPAHAIWRFVRDFANPNKYKHFIKSCTIRVNGNGIKEIKVGTIREVSLKSGFPASTSVEILEVLDEEKRILSFRVLGGEHRLNNYRSVTSVNEFVVLEKDKKKRVYSVVLESYIVDIPQGNTEEDTRMFVDTLVKSNLQNLAVISTASPT,–

# Reference: article PMC8091583 (FEBS Open Bio, 2021)
